Assay results taken from article doi:10.1101/059451.

Biological target: CFF-Myc (UniProt P01732)
Assay: co-IP

- fold more TNPO1 co-IPed in the presence of Rab8-T22N than -Q67L or -wt: 3 fold
Substance: HA-TNPO1 (from UniProt Q92973 1-898) (natural protein)
